Measured values from publication PMC4154873, “Delineation of Interfaces on Human Alpha-Defensins Critical for Human Adenovirus and Human Papillomavirus Inhibition” (PLoS Pathogens, 2014).

B1: unnamed (parent)
chain 1: ATCYCRTGRCATRESLSGVCEISGRLYRLCCR
chain 2: MKRARPSEDTFNPVYPYDTETGPPTVPFLTPPFVSPNGFQESPPGVLSLRLSEPLVTSNGMLALKMGNGLSLDEAGNLTSQNVTTVSPPLKKTKSNINLEISAPLTVTSEALTVAAAAPLMVAGNTLTMQSQAPLTVHDSKLSIATQGPLTVSEGKLALQTSGPLTTTDSSTLTITASPPLTTATGSLGIDLKEPIYTQNGKLGLKYGAPLHVTDDLNTLTVATGPGVTINNTSLQTKVTGALGFDSQGNMQLNVAGGLRIDSQNRRLILDVSYPFDAQNQLNLRLGQGPLFINSAHNLDINYNKGLYLFTASNNSKKLEVNLSTAKGLMFDATAIAINAGDGLEFGSPNAPNTNPLKTKIGHGLEFDSNKAMVPKLGTGLSFDSTGAITVGNKNNDKLTLWTTPAPSPNCRLNAEKDAKLTLVLTKCGSQILATVSVLAVKGSLAPISGTVQSAHLIIRFDENGVLLNNSFLDPEYWNFRNGDLTEGTAYTNAVGFMPNLSAYPKSHGKTAKSNIVSQVYLNGDKTKPVTLTITLNGTQETGDTTPSAYSMSFSWDWSGHNYINEIFATSSYTFSYIAQE
chain 3: MRRAAMYEEGPPPSYESVVSAAPVAAALGSPFDAPLDPPFVPPRYLRPTGGRNSIRYSELAPLFDTTRVYLVDNKSTDVASLNYQNDHSNFLTTVIQNNDYSPGEASTQTINLDDRSHWGGDLKTILHTNMPNVNEFMFTNKFKARVMVSRLPTKDNQVELKYEWVEFTLPEGNYSETMTIDLMNNAIVEHYLKVGRQNGVLESDIGVKFDTRNFRLGFDPVTGLVMPGVYTNEAFHPDIILLPGCGVDFTHSRLSNLLGIRKRQPFQEGFRITYDDLEGGNIPALLDVDAYQASLKDDTEQGGGGAGGSNSSGSGAEENSNAAAAAMQPVEDMNDHAIRGDTFATRAEEKRAEAEAAAEAAAPAAQPEVEKPQKKPVIKPLTEDSKKRSYNLISNDSTFTQYRSWYLAYNYGDPQTGIRSWTLLCTPDVTCGSEQVYWSLPDMMQDPVTFRSTRQISNFPVVGAELLPVHSKSFYNDQAVYSQLIRQFTSLTHVFNRFPENQILARPPAPTITTVSENVPALTDHGTLPLRNSIGGVQRVTITDARRRTCPYVYKALGIVSPRVLSSRTF

Variants of: B1
Assay: SPR
Conditions: with partner chain of the complex shown, read off a plot; for Kd / screen value: steady-state binding curves at 80 sec of association time, 3-fold dilution series from 3 µM to 111 nM
[1] = defensin at 333 nM, immobilized rPenton (2115 RU), peak of sensorgram at end of association (about 180 sec)

## chain 1 ATCYCRTGRCATRESLSGVCAISGRLYRLCCR [chain 1 E21A]
[1]
  response: 480 RU
Immobilized rPenton (2115 RU)
  Kd: 1600 nM
  screen value: 1600 RU

## chain 1 ATCYCRTGRCATRESLSGVCEASGRLYRLCCR [chain 1 I22A]
[1]
  response: 490 RU
Immobilized rPenton (2115 RU)
  Kd: 1500 nM
  screen value: 1600 RU

## chain 1 ATCYCRTGRCATRESLSGVCEISGRAYRLCCR [chain 1 L26A]
[1]
  response: 200 RU
Immobilized rPenton (2115 RU)
  Kd: 1300 nM
  screen value: 700 RU
steady-state response at 80 sec of association time, point at 3 µM defensin
  response: 520 RU

## chain 1 ATCYCRTGRCATRESLSGVCEISGRLYALCCR [chain 1 R28A]
[1]
  response: 340 RU
Immobilized rPenton (2115 RU)
  Kd: 1300 nM
  screen value: 1100 RU

## chain 1 ATCYCRAGRCATRESLSGVCEISGRLYRLCCR [chain 1 T7A]
[1]
  response: 690 RU
Immobilized rPenton (2115 RU)
  Kd: 1300 nM
  screen value: 2100 RU

## chain 1 ATCYCRTGRCAARESLSGVCEISGRLYRLCCR [chain 1 T12A]
[1]
  response: 630 RU
Immobilized rPenton (2115 RU)
  Kd: 1500 nM
  screen value: 2200 RU

## chain 1 ATCYCRTGRCATRESLSGACEISGRLYRLCCR [chain 1 V19A]
[1]
  response: 260 RU
Immobilized rPenton (2115 RU)
  screen value: 1200 RU
